The source of these data is publication PMC5693944.

Common to all, as to assay: SEC-MALS
(In general: Size exclusion chromatography separates by hydrodynamic size, large species first.)

Test [1] concerns the target Ml1 protein from Mesorhizobium loti (Mesorhizobium loti).
For test [2], the target named is Ml2 protein from Mesorhizobium loti (Mesorhizobium loti).
Test [3] addresses MucR from Brucella abortus (Brucella abortus 2308).

In general, stoichiometry N refers to a count of units in the complex or per binding partner. Substance “Ml1 protein from Mesorhizobium loti (natural protein)” had a stoichiometry N in test [1] of 10.4.
“Ml2 protein from Mesorhizobium loti (natural protein)” showed a stoichiometry N in test [2] of 9.96.
Regarding “MucR from Brucella abortus (natural protein)”, the stoichiometry N in test [3] is 10.4.
